“Also recorded” adds a separate entry of the source. Values belong to the molecule of their own block, whether it stands above or below them.
How the values were obtained:
anti-sCRFR2α serum = experiment: Immunohistochemistry, specificity by preincubation of antiserum with synthetic immunogen; details: mouse brain sections; antiserum preincubated with immunogen
Protocol: Immunohistochemistry. Adult male C57B6J mice (Jackson Laboratories) and Sprague-Dawley albino rats (Harlan Sprague-Dawley) were anesthetized with chloral hydrate (350 mg/kg, ip) and perfused with Zamboni's fixative (Bittencourt et al., 1999), followed by 0-4 hr. post-fixation. Regularly spaced (1-in-4) series of 30 μm thick frontal sections throughout the brain were prepared for nickel-enhanced avidin-biotin-immunoperoxidase localization of sCRFR2α-ir using Vectastain Elite reagents (Vector Laboratories, Burlingame, Calif.). Primary sCRFR2α antisera were adsorbed against the carrier, affinity purified and used at a dilution of 1:2000. Specificity of immunostaining was evaluated using primary antisera preincubated overnight at 4° C. with 0-300 μM synthetic immunogen. Labeling was also evaluated in mutant mice deficient in either or both CRFRs (Smith et al., 1998; Bale et al. 2000). Detailed description of the fluorescence immunocytochemical analysis of COSM6 cells transfected with sCRFR2α can be found in the supporting text.
Further support for the specificity of labeling are observations that all immunolocalizations persisted in CRFR1- and/or CRFR2-deleted mice; note that the targeting construct used for generating each of the existing receptor-knockout lines would be expected to spare the sCRFR2α coding region (Smith et al., 1998; Timpl et al., 1998; Bale et al., 2000).

Astressin = target: T1, Astressin (Mus musculus, UniProt Q60748); experiment: Radioreceptor assay, competitive displacement of [125I-DTyr0]-astressin bound to sCRFR2α; assay type: binding; details: range in parentheses in the next cell
T1 construct: A cDNA corresponding to amino acids 20-143 was generated by PCR; made in house; host or cells: E. coli
Protocol: (§1) Radioreceptor assays. The soluble protein, purified either from COS M6 cell media or E. coli was incubated in triplicate wells with [^125I-DTyr^O]-astressin and increasing concentration of unlabeled peptides as described (Perrin et al., 2003).
(§2) The interactions of the sCRFR2α with CRF family ligands were assessed by radioreceptor assay using competitive displacement of [^125I-D Tyr^o]-astressin bound to sCRFR2α.

mUcn2 = target: T2, mUcn2 (Mus musculus, UniProt Q60748); experiment: as above; assay type: binding; details: range in parentheses
T2 construct: A cDNA corresponding to amino acids 20-143 was generated by PCR; made in house; host or cells: E. coli
Protocol: as §1, §2

rUcn1 = target: T3, rUcn1 (Mus musculus, UniProt Q60748); experiment: as above; assay type: binding; details: range in parentheses in the next cell
T3 construct: A cDNA corresponding to amino acids 20-143 was generated by PCR; made in house; host or cells: E. coli
Protocol: as §1, §2

CRF = target: T4, CRF (Mus musculus, UniProt Q60748); experiment: as above; assay type: binding; details: range in parentheses in the next cell
T4 construct: A cDNA corresponding to amino acids 20-143 was generated by PCR; made in house; host or cells: E. coli
Protocol: as §1, §2

mUcn3 = target: T5, mUcn3 (Mus musculus, UniProt Q60748); experiment: as above; assay type: binding
T5 construct: A cDNA corresponding to amino acids 20-143 was generated by PCR; made in house; host or cells: E. coli
Protocol: as §1, §2

[1] = tested on: cAMP response to Ucn 1 and CRF in HEK293T cells transfected with mouse CRFR2α; experiment: CRE-luciferase reporter (EVX1) assay of the cAMP response; assay type: cell-based; details: 4 h, 0.0001-100 nM Ucn 1 or CRF, 0.1 nM sCRFR2α
Protocol: (§3) Luciferase reporter containing a fragment of the CRE promoter of the EVX1 gene was cotransfected into 293T cells with CRFR2α expression vectors. Luciferase activity was measured following treatment (4 h) with 0.0001-100 nM Ucn 1 or CRF, in the presence or absence of 0.1 nM sCRFR2α. Assays were normalized to cotransfected β-galactosidase activity. The representative means of six replicates from one experiment is shown in the graph. FIG. 5B, Equilibrated CATH.a cells were treated with Ucn 1 (10 nM) with or without sCRFR2α (0.4 or 4 nM). After 5 min of receptor stimulation, cell lysates were harvested and subjected to SDS-PAGE immunoblot analysis using phospho-ERK1/2-p42, 44 antibody and ERK2-p44 antibody. The ERK activation was calculated by normalizing the levels of phosphorylated ERK1/2-p42, 44 to total ERK2-p44. The representative of means of triplicates from one experiment is shown in the graph. *, P<0.05 vs. vehicle treatment, #, P<0.05 vs. Ucn 1 treatment, UD=undetected.
Transient transfections and luciferase assay. […]
(§4) To delineate the possible functions of sCRFR2α, the inventors studied its effects on signaling by CRF family ligands. […] Because the urocortins activate MAPK signaling (Brar et al., 2002), the inventors measured the ability of sCRFR2α to inhibit the activation by Ucn 1 of ERK1/2-p42, 44 in CATH.a cells, which endogenously express CRFR1 and CRFR2α.

[2] = tested on: rabbit anti-sCRFR2α (aa 113-143); experiment: sCRFR2α radioimmunoassay (RIA); assay type: binding; details: anti-sCRFR2α at 1/300,000; synthetic sCRFR2α (113-143) as standard
From the text: FIGS. 3A-3C. A highly specific antiserum raised in rabbit using a synthetic peptide fragment encoding the unique C-terminal tail of mouse sCRFR2α protein (aa 113-143) was used to develop a sCRFR2α radioimmunoassay, used for immunoblot analysis and for immunocytochemistry. FIG. 3A is a western immunoblot of mouse sCRFR2α isolated from the medium of COS-M6 cells transiently transfected with sCRFR2αFLAG construct reacted with anti-sCRFR2α-(113-143) serum (left panel) or monoclonal M2 anti-FLAG (right panel). Lanes 1, 2, and 3 correspond to 0.1, 1.0, and 10 μl of sCRFR2α-FLAG extract, respectively. FIG. 3B, Displacement of [^125I]Tyr^113 sCRFR2α (aa 113-143) binding to rabbit anti-sCRFR2α (aa113-143) by synthetic sCRFR2α (aa 113-143) and by purified COS-M6 expressed sCRFR2α (aa 113-143)-FLAG. FIG. 3C, Immunofluorescence staining of COS-M6 cells transiently transfected with mouse sCRFR2α construct visualized with the anti-sCRFR2α (aa 113-143) serum followed by a Cy3-conjugated secondary antibody (FIG. 3C(b)). The slides were counterstained with DAPI to visualize both transfected and non transfected cells (FIG. 3C(a)).
Radio-Immuno Assays (RIA). […]

[3] = tested on: activation by Ucn 1 of ERK1/2-p42, 44 in CATH.a cells; experiment: Extracellular receptor kinase 1/2 (ERK1/2) assay; assay type: cell-based; details: Ucn 1 10 nM, sCRFR2α 0.4 or 4 nM, 5 min
Protocol: as §3, with “The representative of means of triplicates from one experiment is shown in the graph. *, P<0.05 vs. vehicle treatment, #, P<0.05 vs. Ucn 1 treatment, UD=undetected.” left out
Extracellular receptor kinase 1/2 (ERK1/2) assay. […] Cells were harvested immediately and analyzed for phosphorylated ERK1/2-p42, 44, as previously described (Chen et al., 2005).
as §4

Molecule: sCRFR2α (113-143): synthetic peptide fragment encoding the unique C-terminal tail (aa 113-143) of mouse sCRFR2α, used as immunogen and RIA standard (YRIALIVNYLGHCVSVVALVAAFLLFLVLRS; soluble splice isoform sCRFR2alpha; UniProt Q60748 113-143, looked up, fragment)
concentration blocking immunolabeling throughout the brain on pre-incubation of the antiserum (anti-sCRFR2α serum): ≥ 30 µM

Inhibitory binding constants, Ki, Astressin (Astressin): nanomolar affinities
Inhibitory binding constants, Ki, mUcn2 (mUcn2): much lower
Inhibitory binding constants, Ki, rUcn1 (rUcn1): nanomolar affinities
Inhibitory binding constants, Ki, CRF (CRF): nanomolar affinities
Inhibitory binding constants, Ki, mUcn3 (mUcn3): much lower
EC50 in sCRFR2α RIA [2]: ~5 pg per tube
B1: sCRFR2α: 143 amino acid soluble splice variant of mouse CRF receptor type 2α lacking exon six (protein)
chain: MDAALLLSLLEAQLQPGAGRRAAPGRLGSAPGPRRSLHLLQHDLGPDRDLLATERTRSPSRETVPRVLQWHQVQHDPECLQRVPGERDLGLKGQLLTLRTHFG
inhibition of the cAMP response to Ucn 1 and CRF (CRE luciferase activity) [1]: inhibit, in a dose dependent manner; also recorded: interferes with the induction of cAMP
inhibition of induction of phosphorylated ERK by Ucn 1 [3]: inhibits the induction of phosphorylated ERK; also recorded: interferes with the induction
